The source of these data is patent US20080051336A1 (Janssen / Centocor, published 2008).

Like-named read-outs stand apart in the source and are kept apart here. Ends that are not written are not given here.

The target in test [1] is T1, human LGR7 (human, UniProt Q9HBX9 1-757).
T1 sequence (looked up): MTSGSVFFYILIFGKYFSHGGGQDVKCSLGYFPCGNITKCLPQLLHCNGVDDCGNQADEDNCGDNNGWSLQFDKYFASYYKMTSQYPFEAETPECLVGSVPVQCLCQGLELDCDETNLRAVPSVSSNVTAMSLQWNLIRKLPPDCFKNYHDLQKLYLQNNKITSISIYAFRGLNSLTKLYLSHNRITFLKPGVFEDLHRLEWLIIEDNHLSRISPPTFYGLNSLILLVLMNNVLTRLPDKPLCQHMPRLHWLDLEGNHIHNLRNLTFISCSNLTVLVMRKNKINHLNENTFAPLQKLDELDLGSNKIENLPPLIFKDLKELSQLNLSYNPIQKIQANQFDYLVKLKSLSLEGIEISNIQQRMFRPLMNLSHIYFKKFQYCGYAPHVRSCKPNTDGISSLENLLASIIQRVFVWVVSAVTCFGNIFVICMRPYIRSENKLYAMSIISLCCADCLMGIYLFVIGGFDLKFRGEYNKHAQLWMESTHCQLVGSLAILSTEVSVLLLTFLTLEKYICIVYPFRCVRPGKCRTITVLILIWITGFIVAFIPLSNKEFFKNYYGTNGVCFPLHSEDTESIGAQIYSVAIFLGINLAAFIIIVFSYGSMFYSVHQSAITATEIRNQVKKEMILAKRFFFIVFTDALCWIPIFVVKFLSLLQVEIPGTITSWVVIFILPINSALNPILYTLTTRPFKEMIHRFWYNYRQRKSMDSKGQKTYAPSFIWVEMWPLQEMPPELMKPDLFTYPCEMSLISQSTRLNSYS
Briefly: cell-based or functional assay.

The target in test [2] is T2, human GPCR135 (human, UniProt Q9NSD7 1-469).
T2 sequence: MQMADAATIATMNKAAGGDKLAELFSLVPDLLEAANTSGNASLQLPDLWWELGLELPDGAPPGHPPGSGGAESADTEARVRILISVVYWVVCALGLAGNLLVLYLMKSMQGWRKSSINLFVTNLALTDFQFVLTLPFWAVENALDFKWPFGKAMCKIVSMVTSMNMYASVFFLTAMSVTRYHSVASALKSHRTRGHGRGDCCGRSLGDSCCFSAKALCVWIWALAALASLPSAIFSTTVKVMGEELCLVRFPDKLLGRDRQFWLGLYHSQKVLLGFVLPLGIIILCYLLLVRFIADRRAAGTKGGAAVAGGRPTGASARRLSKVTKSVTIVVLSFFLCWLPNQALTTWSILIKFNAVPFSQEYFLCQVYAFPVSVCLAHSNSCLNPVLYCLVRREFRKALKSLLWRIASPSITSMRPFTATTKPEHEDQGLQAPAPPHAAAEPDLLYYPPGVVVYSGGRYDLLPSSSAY
Put plainly: cell-based or functional assay.

Test [3] concerns the target T3, human GPCR142 (human, UniProt Q8TDU9 1-374). Briefly: cell-based or functional assay.
Test [4] addresses T1, human LGR7. Briefly: cell-based or functional assay. The source holds these as a separate data set.
For test [5], the target named is T2, human GPCR135. Briefly: discussion of the radioligand binding results.
The target of test [6] is T1, human LGR7. Put plainly: discussion of the radioligand binding results.
The target in test [7] is T1, human LGR7. Briefly: radioligand competition, live COS-7 cells with human LGR7.
Protocol: (§1) Different unlabeled peptides were used in the binding assay as the competitors. […] Data represent mean±SEM (n=3).
(§2) Radioligand binding assays for LGR7 and LGR8 were performed using live COS-7 cells transiently transfected with LGR7 or LGR8 expression plasmids in 15-cm culture dishes using LipofectAmine (Invitrogen). Two days after transfection, the transfected cells were detached from the 15-cm culture dished using phosphate buffered saline (PBS) plus 10 mM EDTA, seeded into 96-well opaque poly-D-lysine coated culture plates and used for radioligand binding assays. […] [¹²⁵I]-labeled tracer was added in binding reactions at a final concentration of 100 pM in binding buffer containing DMEM plus 50 mM HEPES and 1% bovine serum albumin. […] The binding mixtures were incubated at room temperature for 1 hour. The unbound radioligand was removed by aspiration of the binding buffer. The cells were washed with PBS. The bound radioligand was counted in a scintillation counter (TopCount/NTX). The results were analyzed using Prism 3.0 program (Graphpad, San Diego, Calif.).
The target of test [8] is T4, rat GPCR135 (rat, UniProt Q8BGE9 1-472 (mouse entry)).
T4 construct: Also tested as the native receptor in rat brain sections; also called rat GPCR135 receptors
T4 chain: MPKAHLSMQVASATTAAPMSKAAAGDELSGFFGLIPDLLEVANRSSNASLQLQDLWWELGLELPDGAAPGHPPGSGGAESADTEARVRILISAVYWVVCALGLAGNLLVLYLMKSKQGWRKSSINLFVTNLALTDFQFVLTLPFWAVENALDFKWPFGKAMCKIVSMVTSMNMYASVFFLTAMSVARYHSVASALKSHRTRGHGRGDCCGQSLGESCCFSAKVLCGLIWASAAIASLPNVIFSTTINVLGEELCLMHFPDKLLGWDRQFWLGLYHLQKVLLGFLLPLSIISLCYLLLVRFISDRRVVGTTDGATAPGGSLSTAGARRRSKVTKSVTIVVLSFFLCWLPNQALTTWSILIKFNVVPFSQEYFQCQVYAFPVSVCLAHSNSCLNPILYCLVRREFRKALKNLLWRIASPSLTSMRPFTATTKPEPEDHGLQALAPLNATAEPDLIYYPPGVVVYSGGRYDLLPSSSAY
Put plainly: radioligand competition, COS-7 membranes; reference rat LGR7. A general note: In a radioligand displacement assay an active substance lowers the binding of a labelled ligand.
Protocol: (§3) The reaction was incubated at room temperature for 1 hour and the membranes were filtered through the 96-well GFC plates (Packard Instrument Co., Meriden, Conn.) using a cell harvester (Packard Instrument Co). The filter was washed with the ice cold washing buffer (50 mM Tris-HCl, pH 7.5). Fifty μl of Microscint 40 (Packard Instrument Co) was added to each well and the plates were counted on a Topcount NTX (Packard Instrument Co). […] The results were analyzed using the PRISM software (GraphPad, San Diego, Calif.).

The target in test [9] is T5, rat LGR7 (rat, UniProt Q6R6I6 1-758).
T5 construct: whole, on cells; Tested as membranes of transfected COS-7 cells; also called rat LGR7 receptors
T5 sequence (looked up): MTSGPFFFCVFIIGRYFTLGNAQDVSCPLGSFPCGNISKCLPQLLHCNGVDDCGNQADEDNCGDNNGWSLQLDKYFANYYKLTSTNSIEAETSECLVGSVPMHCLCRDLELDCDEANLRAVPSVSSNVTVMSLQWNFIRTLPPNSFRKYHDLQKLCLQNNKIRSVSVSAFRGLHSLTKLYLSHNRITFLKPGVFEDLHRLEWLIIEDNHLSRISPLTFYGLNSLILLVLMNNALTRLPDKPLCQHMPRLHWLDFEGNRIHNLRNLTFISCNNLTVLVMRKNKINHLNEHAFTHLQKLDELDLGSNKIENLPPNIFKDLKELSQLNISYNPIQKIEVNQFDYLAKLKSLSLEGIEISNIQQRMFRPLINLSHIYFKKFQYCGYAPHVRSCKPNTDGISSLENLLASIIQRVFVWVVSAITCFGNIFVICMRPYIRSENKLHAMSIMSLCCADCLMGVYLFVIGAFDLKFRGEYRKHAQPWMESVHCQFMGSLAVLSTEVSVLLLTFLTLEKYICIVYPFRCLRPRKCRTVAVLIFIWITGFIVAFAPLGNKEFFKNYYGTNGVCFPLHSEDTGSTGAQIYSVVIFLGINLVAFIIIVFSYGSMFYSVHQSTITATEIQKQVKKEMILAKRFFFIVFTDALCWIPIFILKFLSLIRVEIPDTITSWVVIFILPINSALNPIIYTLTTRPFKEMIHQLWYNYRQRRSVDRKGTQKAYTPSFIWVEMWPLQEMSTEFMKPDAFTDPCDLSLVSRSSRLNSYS
Briefly: competition with [125I]R2 (100 pM), COS-7 membranes with rat LGR7.
Protocol: as §3

For test [10], the target named is T4, rat GPCR135. Briefly: competition with [125I]-R3 (100 pM), COS-7 membranes with rat GPCR135.
Protocol: as §3
Test [11] addresses T1, human LGR7. Briefly: competition with [125I]-relaxin-3 (100 pM), live COS-7 cells with human LGR7.
Protocol: as §1, §2
The target of test [12] is T2, human GPCR135. Put plainly: competition with [125I]-relaxin-3 (100 pM), COS-7 membranes with human GPCR135.
Protocol: as §1
(§4) Peptides for competition binding studies were added to the binding mix (final volume: 200 μl) in binding buffer [50 mM Tris-HCl, pH 7.5, 5 mM EDTA, 1% bovine serum albumin, 0.1% protease inhibitor cocktails (Sigma)]. The binding mixtures were incubated at room temperature for 1 hour, filtered through GFC plates (Packard) pre-saturated with 0.3% Polyethylenimine (Sigma), and washed with cold washing buffer (50 mM Tris-HCl, pH 7.5, 5 mM EDTA).
The target of test [13] is T3, human GPCR142. Put plainly: competition with [125I]-relaxin-3 (100 pM), COS-7 membranes with human GPCR142.
Protocol: as §1, §4
Test [14] has as its target T6, human LGR8 (human, UniProt Q8WXD0 1-754).
T6 construct: whole, on cells
Put plainly: competition with [125I]-INSL3 (100 pM) on live COS-7 cells expressing human LGR8; ND denotes no activity was detected.
Protocol: as §1, §2

Test [15] concerns the target T4, rat GPCR135. Briefly: inhibition of [125I]R3/I5 binding sites, quantitative receptor autoradiography, rat cortex.
Protocol: (§5) Sections were thawed and dried under a cold air stream and then pre-incubated for 15 min. at room temperature in incubation buffer (20 mM HEPES, pH 7.4, 120 mM NaCl₂, 0.22 mM KH₂PO₄, 1.3 mM CaCl₂, 0.8 mM MgSO₄) by immersing sections in a 400 ml jar. […] After incubation, the excess radioligand was washed off by immersing the slides in the jar containing incubation buffer at 4° C. (3 times 10 min.) followed by a quick immersion in water. […] The imaging plates were scanned using the Fuji Bio-Imaging Analyzer System (BAS-5000, Fuji Medical System, CT) and visualized using ImageGauge V3.12 software (Fuji Medical System, CT).
Test [16] has as its target T4, rat GPCR135. Put plainly: inhibition of [125I]R3/I5 binding sites, quantitative receptor autoradiography, rat olfactory bulb.
Protocol: as §5
The target of test [17] is T4, rat GPCR135. Put plainly: inhibition of [125I]R3/I5 binding sites, quantitative receptor autoradiography, rat superior colliculus.
Protocol: as §5
Test [18] deals with T4, rat GPCR135. Put plainly: competition with [125I]R3 (100 pM), COS-7 membranes with rat GPCR135.
Protocol: as §3
Test [19] has as its target T1, human LGR7. Put plainly: competition with [125I]-relaxin-3 (100 pM) on live COS-7 cells expressing human LGR7; ND denotes no activity was detected.
Protocol: as §1, §2

T3 sequence (Q8TDU9 whole entry L329S): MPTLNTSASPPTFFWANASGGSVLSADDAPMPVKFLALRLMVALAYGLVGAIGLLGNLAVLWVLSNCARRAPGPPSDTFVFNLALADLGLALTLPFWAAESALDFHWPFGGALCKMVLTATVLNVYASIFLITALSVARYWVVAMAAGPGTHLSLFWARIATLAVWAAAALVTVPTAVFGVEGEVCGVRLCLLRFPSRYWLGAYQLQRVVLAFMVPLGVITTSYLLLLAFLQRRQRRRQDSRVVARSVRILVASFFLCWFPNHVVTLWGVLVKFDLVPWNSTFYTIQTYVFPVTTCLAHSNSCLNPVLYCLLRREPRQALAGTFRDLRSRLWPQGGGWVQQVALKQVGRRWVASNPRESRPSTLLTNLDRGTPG
T6 sequence (Q8WXD0 whole entry): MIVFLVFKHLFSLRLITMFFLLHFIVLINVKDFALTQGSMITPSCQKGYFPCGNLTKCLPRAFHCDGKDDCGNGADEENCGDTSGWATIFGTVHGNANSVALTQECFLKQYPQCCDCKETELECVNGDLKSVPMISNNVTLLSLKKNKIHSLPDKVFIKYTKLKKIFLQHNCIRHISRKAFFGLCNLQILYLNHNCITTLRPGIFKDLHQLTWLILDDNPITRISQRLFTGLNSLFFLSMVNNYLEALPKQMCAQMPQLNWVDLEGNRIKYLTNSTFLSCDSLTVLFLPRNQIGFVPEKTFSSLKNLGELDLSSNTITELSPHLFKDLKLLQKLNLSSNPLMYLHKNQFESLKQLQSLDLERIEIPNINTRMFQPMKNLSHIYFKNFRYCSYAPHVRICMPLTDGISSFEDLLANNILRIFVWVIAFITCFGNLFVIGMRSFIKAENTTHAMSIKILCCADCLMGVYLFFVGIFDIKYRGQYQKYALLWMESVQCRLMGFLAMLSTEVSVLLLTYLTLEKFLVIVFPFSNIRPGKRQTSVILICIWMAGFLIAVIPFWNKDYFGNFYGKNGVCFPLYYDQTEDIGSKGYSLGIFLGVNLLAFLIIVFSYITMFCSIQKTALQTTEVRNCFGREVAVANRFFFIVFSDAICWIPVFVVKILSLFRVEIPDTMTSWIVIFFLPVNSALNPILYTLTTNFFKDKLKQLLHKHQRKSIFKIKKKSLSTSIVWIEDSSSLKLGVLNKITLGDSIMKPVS

B1: human relaxin-3/INSL5 chimeric polypeptide (R3/I5), mature (ligand)
chain: RAAPYGVRLCGREFIRAVIFTCGGSRWQDLQTLCCTDGCSMTDLSALC
modifications: disulfide (positions not given here); also: two chains (relaxin-3 B-chain, INSL5 A-chain), disulfide-linked, chain break not marked
notes: Mature two-chain peptide: human relaxin-3 B-chain disulfide-linked to human INSL5 A-chain; FLAG tag removed; the tracer is kept under this same molecule; also called R3/5; I5/R3
In general, Kd refers to the constant that tells how readily two partners part at equilibrium. Read a low Kd as tighter binding. What is called IC50 is the concentration that gives 50% inhibition. Read a high IC50 as a need for much substance. For the molecule B1, the entries for the “EC50, ligand stimulated β-galactosidase expression” value in [1] and in test [4] were roughly 400 nM and 412 nM, respectively. Besides, the entries for the “EC50, inhibition of forskolin stimulated β-galactosidase expression” value in test [2] and in test [3] were 0.45 nM and 0.91 nM, respectively. Besides, the Kd in test [5] was roughly 0.5 nM; in test [6], roughly 500 nM. Further, the IC50 was roughly 500 nM in test [7]; greater than 400 nM in test [9]; 0.5 nM in test [10]; 724 nM in test [11]; 0.68 nM in test [12]; 1.4 nM in test [13]. The “fold selectivity over rat LGR7” value in [8] was 800 fold. Moreover, in [14], the binding result is listed as “no binding”.

B2: human relaxin-3 (ligand)
chain: RAAPYGVRLCGREFIRAVIFTCGGSRWDVLAGLSSSCCKWGCSKSEISSLC
modifications: disulfide (positions not given here); also: two-chain peptide (A and B chains), disulfide-linked, places not given here
notes: Mature two-chain peptide (A-chain and B-chain, disulfide-linked); It is not clear whether that entry holds the B-chain alone or both chains; also called R3; INSL7
As to B2, in test [1], the “EC50, stimulation of β-galactosidase activity” value was 1.4 nM. In addition, the half-inhibitory concentration (IC50) was 0.4 nM in [15], 0.3 nM in [16] and 0.3 nM in test [17].

B3: human relaxin (R1) (ligand)
chain: KWKDDVIKLCGRELVRAQIAICGMSTWSRPYVALFEKCCLIGCTKRSLAKYC
notes: also called relaxin-1
B3: the concentration for half-maximal inhibition (IC50) in [9] is 0.2 nM; in [18], greater than 1000 nM.

B4: human relaxin-3/INSL4 chimeric polypeptide (R3/I4), mature (ligand)
chain: RAAPYGVRLCGREFIRAVIFTCGGSRWFDPFCCEVICDDGTSVKLC
modifications: disulfide (positions not given here); also: two chains (relaxin-3 B-chain, INSL4 A-chain), disulfide-linked, chain break not marked
notes: Mature two-chain peptide: human relaxin-3 B-chain disulfide-linked to human INSL4 A-chain; FLAG tag removed
On to B4, for which the “EC50, inhibition of forskolin stimulated β-galactosidase expression” value in test [2] and in [3] was greater than 1000 nM throughout. Also, the IC50 in [12] and in [13] was greater than 1000 nM in each case. The binding result in test [14] was “no binding”; in test [19] it was “no binding (tested: 1 µM)”.
